Test [1] addresses T1, human FolR1 expressed on cells (HeLa, SKOV3, HT-29, transfected HEK cells) (human, UniProt P15328 25-234). The test is described as follows: cell-based or functional assay.
Test [2] concerns the target T1, human FolR1 expressed on cells (HeLa, …). The test is described as follows: cell-based or functional assay. This is another data set of the same source.
Test [3] deals with T2, recombinant biotinylated monomeric Fc fusion of human Folate Receptor 1 (huFolR1 ECD-AcTev-Fcknob-Avi tag … (human, UniProt P0DOX5 223-449 = IgG part, biotin on the C-terminal Avi tag)).
T2 construct: also called huFolR1-Fc; human FolR1-Fc
The test is described as follows: SPR Biacore, avidity (bivalent).

Test [4] concerns the target T2, recombinant biotinylated monomeric Fc …. The experiment in a line: SPR Biacore, affinity (monovalent).
Test [5] has the same target. The experiment in a line: SPR Biacore, affinity (monovalent), antibody captured via anti-Fab. On the procedure:
(§1) All SPR experiments were performed on a Biacore T200 at 25° C. with HBS-EP as running buffer (0.01 M HEPES pH 7.4, 0.15 M NaCl, 3 mM EDTA, 0.005% Surfactant P20, Biacore, GE Healthcare). The molecules used for affinity and avidity determination are described in Table 45.
(§2) For affinity measurement, direct coupling of around 12000 resonance units (RU) of the anti-human Fab specific antibody (Fab capture kit, GE Healthcare) was performed on a CM5 chip at pH 5.0 using the standard amine coupling kit (GE Healthcare). Anti-FolR1 T cell bispecifics were captured at 20 nM with a flow rate of 10 μl/min for 40 sec, the reference flow cell was left without capture. […] The dissociation phase was monitored for 300 s and triggered by switching from the sample solution to HBS-EP. The chip surface was regenerated after every cycle using a double injection of 60 sec 10 mM Glycine-HCl pH 2.1. Bulk refractive index differences were corrected for by subtracting the response obtained on the reference flow cell 1. The affinity constants for the interactions were derived from the rate constants by fitting to a 1:1 Langmuir binding using the Bia Evaluation software (GE Healthcare). For low affinity kinetics with association and dissociation phases too fast to be fitted by the 1:1 Langmuir binding model, the steady state analysis model was applied using the Bia Evaluation software (GE Healthcare). The steady state analysis gives the KD of the binding reaction at equilibrium.

Test [6] has the same target. The experiment in a line: SPR Biacore, avidity (bivalent, apparent KD), antigen-Fc on SA chip. On the procedure: as §1
(§3) Recombinant biotinylated monomeric Fc fusions of human, cynomolgus and murine Folate Receptor 1 (FolR1-Fc) were directly coupled on a SA chip using the standard coupling instruction (Biacore, GE Healthcare). The immobilization level was about 200-300 RU. […] The dissociation was monitored for 240 or 600 seconds. The chip surface was regenerated after every cycle using a double injection of 30 sec 10 mM Glycine-HCl pH 1.5. Bulk refractive index differences were corrected for by subtracting the response obtained on reference flow cell immobilized with recombinant biotinylated murine IL2R Fc fusion (unrelated Fc fused receptor). The binding curves resulting from the bivalent binding of the T cell bispecifics were approximated to a 1:1 Langmuir binding (even though it is a 1:2 binding) and fitted with that model to get an apparent KD representing the avidity of the bivalent binding. The apparent avidity constants for the interactions were derived from the rate constants of the fitting using the Bia Evaluation software (GE Healthcare).

The target of test [7] is T3, recombinant biotinylated monomeric Fc fusion of cynomolgus Folate Receptor 1 (cy FolR1 ECD-AcTev-Fcknob-Avi … (cynomolgus, UniProt P0DOX5 223-449 = IgG part, biotin on the C-terminal Avi tag)).
T3 construct: also called cyFolR1-Fc; cyno FolR1
The test is described as above. On the procedure: as §1, §3

In test [8] the target is T3, recombinant biotinylated monomeric Fc …. The experiment in a line: SPR Biacore, affinity (monovalent), antibody captured via anti-Fab, steady state analysis. The procedure:
as §1, §2

For test [9], the target named is T2, recombinant biotinylated monomeric Fc …. The test is described as follows: SPR Biacore, single injection on immobilized antigen-Fc. A digest of the protocol:
(§4)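 Biacore T200 at 25 °C in HBS-EP (HEPES pH 7.4). Biotinylated FolR-Fc fusions captured on SA chip at about 300-400 RU. IgGs injected once at 500 nM for 60 s to assess cross-reactivity and specificity.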

Test [10] deals with T3, recombinant biotinylated monomeric Fc …. The description is as above. The method, boiled down: as §4
For test [11], the target named is T4, recombinant biotinylated monomeric Fc fusion of human Folate Receptor 2 (hu FolR2 ECD-AcTev-Fcknob-Avi tag … (human, UniProt P0DOX5 223-449 = IgG part, biotin on the C-terminal Avi tag)).
T4 construct: also called FolR2-Fc
Described as above. A digest of the protocol:
as §4

The target of test [12] is T5, recombinant biotinylated monomeric Fc fusion of human Folate Receptor 3 (hu FolR3 ECD-AcTev-Fcknob-Avi tag … (human, UniProt P0DOX5 223-449 = IgG part, biotin on the C-terminal Avi tag)).
T5 construct: also called FolR3-Fc
Described as above. A digest of the protocol:
as §4

The target in test [13] is T2, recombinant biotinylated monomeric Fc …. The experiment in a line: SPR ProteOn, Fab analyte on immobilized antigen-Fc. On the procedure: (§5) Immobilization of antigens (ligand): Recombinant antigens were diluted with PBST (10 mM phosphate, 150 mM sodium chloride pH 7.4, 0.005% Tween 20) to 10 μg/ml, then injected at 30 μl/minute in vertical orientation. Injection of analytes: For ‘one-shot kinetics’ measurements, injection direction was changed to horizontal orientation, two-fold dilution series of purified Fab (varying concentration ranges) were injected simultaneously along separate channels 1-5, with association times of 150 or 200 s, and dissociation times of 200 or 600 s, respectively. Buffer (PBST) was injected along the sixth channel to provide an “in-line” blank for referencing. Association rate constants (kₒₙ) and dissociation rate constants (koff) were calculated using a simple one-to-one Langmuir binding model in ProteOn Manager v3.1 software by simultaneously fitting the association and dissociation sensorgrams. The equilibrium dissociation constant (KD) was calculated as the ratio koff/kₒₙ.

Test [14] has as its target T3, recombinant biotinylated monomeric Fc …. The experiment in a line: SPR ProteOn, Fab analyte on immobilized antigen-Fc. The procedure: as §5
Test [15] concerns the target T4, recombinant biotinylated monomeric Fc …. The test is described as follows: SPR ProteOn, Fab analyte on immobilized antigen-Fc. The procedure:
as §5

Test [16] concerns the target T5, recombinant biotinylated monomeric Fc …. The experiment in a line: SPR ProteOn, Fab analyte on immobilized antigen-Fc. On the procedure:
as §5

In test [17] the target is T6, recombinant biotinylated monomeric Fc fusion of murine Folate Receptor 1 (mu FolR1 ECD-AcTev-Fcknob-Avitag … (murine, UniProt P0DOX5 223-449 = IgG part, biotin on the C-terminal Avi tag)).
T6 construct: also called muFolR1-Fc; murine FolR1
The test is described as follows: SPR ProteOn, Fab analyte on immobilized antigen-Fc. On the procedure: as §5

Residue numbers refer to the chain shown, from its start. Numbers in names are those of the source.

T1 sequence (P15328 25-234): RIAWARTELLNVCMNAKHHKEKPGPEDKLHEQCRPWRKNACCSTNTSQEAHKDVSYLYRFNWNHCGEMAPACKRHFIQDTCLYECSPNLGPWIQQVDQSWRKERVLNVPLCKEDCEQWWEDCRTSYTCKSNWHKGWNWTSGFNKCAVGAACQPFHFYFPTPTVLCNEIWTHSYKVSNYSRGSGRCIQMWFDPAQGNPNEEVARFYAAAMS

B1: 16D5 G49S/K53A TCB (2+1 inverted, common light chain) (bispecific antibody, V domains shown)
VH 1: not shown
VL: QTVVTQEPSLTVSPGGTVTLTCGSSTGAVTTSNYANWVQQKPGQAPRGLIGGTNARAPGTPARFSGSLLGGKAALTLSGVQPEDEAEYYCALWYSNLWVFGGGTKLTVL
VH 2: not shown
B1: in test [1], the “EC50 of T-cell killing of Hela, 24 h” value was determined as 0.0044 nM and the “EC50 of T-cell killing of SKov-3, 24 h” value amounted to 1.7 nM. In [2], the “EC50 of T-cell killing of HT-29, 48 h” value was determined as 1.79 nM; the “EC50 of T-cell killing of Hela, 48 h” value was found to be 0.0005 nM; the “EC50 of T-cell killing of SKov-3, 48 h” value stood at 0.95 nM. In addition, the “fold lower avidity than 16D5 WT (3 nM)” value in [3] was determined as 13 fold. Also, the “fold lower affinity than 16D5 WT (57 nM)” value in test [4] worked out at 30 fold. Besides, in [5], the Kd turned out to be 1700 nM, the koff was 0.0159 s⁻¹ and the on-rate constant (kon) came to 9170 M⁻¹ s⁻¹. Also, in [6], the Kd worked out at 40 nM, the koff was 0.00586 s⁻¹ and the kon was found to be 132000 M⁻¹ s⁻¹. Moreover, in test [7], the Kd worked out at 70 nM, the off-rate constant (koff) was 0.0256 s⁻¹ and the association rate constant (kon) stood at 373000 M⁻¹ s⁻¹. Also, in test [8], the Kd was found to be 1900 nM.

B2: 20G6 IgG (antibody, V domains shown)
VH: QVQLVQSGAEVKKPGASVKVSCKASGYTFTSYYMHWVRQAPGQGLEWMGIINPSGGSTSYAQKFQGRVTMTRDTSTSTVYMELSSLRSEDTAVYYCARGEWIRYYHFDYWGQGTLVTVSS
VL: B1 VL with T2A, Q40E, P46F, A55K, V80A
notes: human IgG1
With B2, the binding result in test [9], in [10], in test [11] and in [12] was “no binding (tested: 500 nM)” each time.

B3: 19H3 IgG (antibody, V domains shown)
VH: B2 VH with G99T, E100G, I102S, Y104W, Y105G, H106Y, F107M
VL: B1 VL with T2A, Q40E, P46F, A55K, V80A
notes: human IgG1
Consider B3, for which the binding result in test [9], in test [10], in test [11] and in [12] was “no binding (tested: 500 nM)” in each case.

B4: 14E4 Fab (Fab, V domains shown)
VH: not shown
VL: EIVLTQSPGTLSLSPGERATLSCRASQSVSSSYLAWYQQKPGQAPRLLIYGASSRATGIPDRFSGSGSGTDSTLTISRLEPEDFAVYYCQQPTSSPITFGQGTKVEIK
notes: bacterial Fab
Turning to B4, the binding result in test [13], in test [14], in test [15] and in test [16] was “no binding” in each case.

B5: 36F2 Fab (Fab, V domains shown)
VH: QVQLVQSGAEVKKPGASVKVSCKASGYTFTSYYMHWVRQAPGQGLEWMGIINPSGGSTSYAQKFQGRVTMTHDTSTSTVYMELSSLRSEDTAVYYCARSFFTGFHLDYWGQGTLVTVSS
VL: EIVLTQSPGTLSLSPGERATLSCRASQSVSSSYLAWYQQKPGQAPRLLIYGASSRATGIPDRFSGSGSGTDFTLTISRLEPEDFAVYYCQQYTNEHYYTFGQGTKVEIK
notes: bacterial Fab
For B5, the Kd in test [13] is 1810 nM; in test [14], 1640 nM; in [17], 737 nM. Further, the binding result in test [15] and in test [16] was “no binding” in each case.

B6: 9D11 Fab (Fab, V domains shown)
VH: QVQLVQSGAEVKKPGASVKVSCKASGYTFTSYYMHWVRQAPGQGLEWMGIINPSGGPTSYAQKFQGRVTMTRDTSTSTVYMELSSLRSEDTAVYYCARGDFAWLDYWGQGTLVTVSS
VL: not shown
notes: bacterial Fab
B6: the Kd in test [13] is 8.64 nM; in test [14], 5.29 nM. Also, the binding result in test [17], in test [15] and in test [16] was “no binding” in each case.

These data come from patent publication US20220220224A1 (Hoffmann-La Roche, published 2022).
